Results reported in publication PMC7374887, “Severe syndromic ID and skewed X-inactivation in a child with NAA10 dysfunction and a novel heterozygous de novo NAA10 p.(His16Pro) variant - a case report” (BMC Medical Genetics, 2020).

Molecular target: T1, NAA10 H16P-V5 (human, UniProt P41227-1 1-235, H16P)
T1 sequence (looked up): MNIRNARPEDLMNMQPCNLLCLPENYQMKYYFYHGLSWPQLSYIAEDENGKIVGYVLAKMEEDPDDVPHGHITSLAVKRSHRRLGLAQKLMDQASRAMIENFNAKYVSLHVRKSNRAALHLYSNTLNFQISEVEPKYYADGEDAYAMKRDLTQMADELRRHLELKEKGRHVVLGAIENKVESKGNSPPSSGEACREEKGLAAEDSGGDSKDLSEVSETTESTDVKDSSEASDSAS
Assay: cell-based or functional assay

Nt-acetylation assay of the V5 immunoprecipitate towards the monomeric NAA10 substrate EEEI24, normalized to NAA10-V5, relative to NAA10 WT-V5: 1.5 fold
B1: NAA15 (natural protein, human (endogenous in HeLa), UniProt Q9BXJ9 1-866, looked up)
chain: MPAVSLPPKENALFKRILRCYEHKQYRNGLKFCKQILSNPKFAEHGETLAMKGLTLNCLGKKEEAYELVRRGLRNDLKSHVCWHVYGLLQRSDKKYDEAIKCYRNALKWDKDNLQILRDLSLLQIQMRDLEGYRETRYQLLQLRPAQRASWIGYAIAYHLLEDYEMAAKILEEFRKTQQTSPDKVDYEYSELLLYQNQVLREAGLYREALEHLCTYEKQICDKLAVEETKGELLLQLCRLEDAADVYRGLQERNPENWAYYKGLEKALKPANMLERLKIYEEAWTKYPRGLVPRRLPLNFLSGEKFKECLDKFLRMNFSKGCPPVFNTLRSLYKDKEKVAIIEELVVGYETSLKSCRLFNPNDDGKEEPPTTLLWVQYYLAQHYDKIGQPSIALEYINTAIESTPTLIELFLVKAKIYKHAGNIKEAARWMDEAQALDTADRFINSKCAKYMLKANLIKEAEEMCSKFTREGTSAVENLNEMQCMWFQTECAQAYKAMNKFGEALKKCHEIERHFIEITDDQFDFHTYCMRKITLRSYVDLLKLEDVLRQHPFYFKAARIAIEIYLKLHDNPLTDENKEHEADTANMSDKELKKLRNKQRRAQKKAQIEEEKKNAEKEKQQRNQKKKKDDDDEEIGGPKEELIPEKLAKVETPLEEAIKFLTPLKNLVKNKIETHLFAFEIYFRKEKFLLMLQSVKRAFAIDSSHPWLHECMIRLFNTAVCESKDLSDTVRTVLKQEMNRLFGATNPKNFNETFLKRNSDSLPHRLSAAKMVYYLDPSSQKRAIELATTLDESLTNRNLQTCMEVLEALYDGSLGDCKEAAEIYRANCHKLFPYALAFMPPGYEEDMKITVNGDSSAEAEELANEI
